Experiment [1] addresses FLAG-tagged full-length human CHK2 K245A (immunoprecipitated) (human) (UniProt O96017).
The target of experiment [2] is FLAG-tagged full-length human CHK2, wildtype (immunoprecipitated) (human) (UniProt O96017).
The target is the same in experiment [3]. This is another data set of the same source.

“Calmodulin (recombinant, produced in-house) (from UniProt P0DP23 1-149) (natural protein)” had a fold decrease in radiometric kinase assay of immunoprecipitated full-length CHK2 mutant with or without CaCl2 and CaM in experiment [1] of 10 fold. The substance further displayed a radiometric kinase assay (CHKtide, [^32P]-γ-ATP) of immunoprecipitated full-length CHK2 with or without CaCl2 and CaM in experiment [2] of 10 fold. The substance also came in with an IC50 of CaM (0-200 μM) for the kinase activity of immunoprecipitated full-length CHK2, radiometric assay, 1 mM CaCl2 in experiment [3] of 8.09 µM.

Source of the values: paper PMC12751073.
